Read-outs that look alike come from different tables or passages of the source.
Test system: H1N1 influenza (A/PR8 strain)

B1: F-652: recombinant IL-22 dimer consisting of two monomeric subunits each comprising a sequence shown in SEQ ID NO: 24 (protein)
chain 1: APISSHCRLDKSNFQQPYITNRTFMLAKEASLADNNTDVRLIGEKLFHGVSMSERCYLMKQVLNFTLEEVLFPQSDRFQPYMQEVVPFLARLSNRLSTCHIEGDDLHIQRNVQKLKDTVKKLGESGEIKAIGELDLLFMSLRNACIGSGGGSGGGGSGGGGSVECPPCPAPPVAGPSVFLFPPKPKDTLMISRTPEVTCVVVDVSHEDPEVQFNWYVDGVEVHNAKTKPREEQFNSTFRVVSVLTVVHQDWLNGKEYKCKVSNKGLPASIEKTISKTKGQPREPQVYTLPPSREEMTKNQVSLTCLVKGFYPSDIAVEWESNGQPENNYKTTPPMLDSDGSFFLYSKLTVDKSRWQQGNVFSCSVMHEALHNHYTQKSLSLSPGK
chain 2: B1 chain 1
modifications: homodimer
Aged mice, Days 21-64 post-infection, F-652 200 μg/kg once weekly for 3 weeks, no PBS treated mice lost
  mice lost during the treatment phase: 3 mice
Aged mice, F-652 200 μg/kg once weekly, 6-week treatment group
  mice lost during the treatment phase: 2 mice
Young groups, F-652 200 μg/kg once weekly
  mice lost during the treatment phase: no mice were lost
Young or aged mice, Days 21-64 post-infection
  body weight, F-652 vs PBS treatment groups: no notable differences

From patent publication US20230079150A1, “METHODS FOR PREVENTION OR TREATMENT OF VIRUS-INDUCED ORGAN INJURY OR FAILURE WITH IL-22 DIMER” (priority 2020, published 2023)
